Assay results: US20230285581A1

Columns and labels:
[1] = molecular target: human MSR1 extracellular domain expressed with a N-terminal nonahistidine tag (His9-hMSR1; R&D Systems, Cat #2708-MS) (human) (UniProt P21757); experiment: competition ELISA; 100 nM antibody, competitor Ac-LDL, plate-coated His9-hMSR1
[2] = molecular target: human MSR1 extracellular domain expressed with a N-terminal nonahistidine tag (His9-hMSR1; R&D Systems, Cat #2708-MS) (human) (UniProt P21757); experiment: competition ELISA; 300 nM antibody, competitor biot-AGE-BSA, plate-coated His9-hMSR1
[3] = molecular target: human MSR1 extracellular domain expressed with a N-terminal nonahistidine tag (His9-hMSR1; R&D Systems, Cat #2708-MS) (human) (UniProt P21757); experiment: competition ELISA; 1 µM antibody, competitor 10 nM Ox-LDL, plate-coated His9-hMSR1
[4] = molecular target: human MSR1 endogenously expressed on PMA-differentiated THP-1 cells (human) (UniProt P21757); experiment: confocal imaging, 10 µg/mL antibody + Alexa Fluor 488 secondary on PMA-differentiated THP-1 cells
[5] = molecular target: mouse MSR1 on RAW264.7 cells (mouse) (UniProt P30204); experiment: flow cytometry, RAW264.7 cells, 10 ug/mL
[6] = molecular target: full length human MSR1 with a C-terminal Myc tag on HEK293.Myc.hMSR1 cells (human) (UniProt P21757); experiment: ECL cell binding, HEK293.Myc.hMSR1 cells
[7] = molecular target: endogenously expressed human MSR1 on PMA-treated THP-1 cells (human) (UniProt P21757); experiment: ECL cell binding, PMA-treated THP-1 cells
[8] = molecular target: full length monkey MSR1 on HEK293.mfMSR1 cells (Macaca fascicularis); experiment: ECL cell binding, HEK293.mfMSR1 cells
Sequence of full length monkey MSR1 on HEK293.mfMSR1 cells (Macaca fascicularis) (chain, as listed by the source): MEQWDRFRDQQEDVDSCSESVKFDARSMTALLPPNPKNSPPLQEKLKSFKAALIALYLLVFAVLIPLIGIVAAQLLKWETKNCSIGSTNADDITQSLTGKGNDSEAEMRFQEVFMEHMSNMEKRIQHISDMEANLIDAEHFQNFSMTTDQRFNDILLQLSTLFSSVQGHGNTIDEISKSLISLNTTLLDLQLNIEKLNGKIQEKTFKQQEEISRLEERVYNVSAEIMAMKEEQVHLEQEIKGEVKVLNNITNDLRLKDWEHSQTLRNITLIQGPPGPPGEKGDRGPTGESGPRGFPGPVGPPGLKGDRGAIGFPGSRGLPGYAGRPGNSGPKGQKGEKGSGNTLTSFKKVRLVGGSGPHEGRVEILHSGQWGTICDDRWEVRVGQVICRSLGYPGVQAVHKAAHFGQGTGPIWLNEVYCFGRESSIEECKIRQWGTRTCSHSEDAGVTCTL

Sequence of human MSR1 extracellular domain expressed with a N-terminal nonahistidine tag (His9-hMSR1; R&D Systems, Cat #2708-MS) (human) (P21757 other isoform, or with tags, fused parts or gaps): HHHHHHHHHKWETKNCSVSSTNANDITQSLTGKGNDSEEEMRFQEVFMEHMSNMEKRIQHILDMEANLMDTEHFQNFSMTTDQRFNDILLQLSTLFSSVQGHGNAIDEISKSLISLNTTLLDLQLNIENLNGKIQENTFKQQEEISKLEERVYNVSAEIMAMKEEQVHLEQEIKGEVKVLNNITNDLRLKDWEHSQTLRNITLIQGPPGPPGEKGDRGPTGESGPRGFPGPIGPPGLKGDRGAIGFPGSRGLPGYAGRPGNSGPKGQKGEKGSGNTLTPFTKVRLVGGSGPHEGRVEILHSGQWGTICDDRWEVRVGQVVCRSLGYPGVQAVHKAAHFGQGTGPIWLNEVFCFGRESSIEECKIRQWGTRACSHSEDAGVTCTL
Sequence of full length human MSR1 with a C-terminal Myc tag on HEK293.Myc.hMSR1 cells (human) (P21757 whole entry): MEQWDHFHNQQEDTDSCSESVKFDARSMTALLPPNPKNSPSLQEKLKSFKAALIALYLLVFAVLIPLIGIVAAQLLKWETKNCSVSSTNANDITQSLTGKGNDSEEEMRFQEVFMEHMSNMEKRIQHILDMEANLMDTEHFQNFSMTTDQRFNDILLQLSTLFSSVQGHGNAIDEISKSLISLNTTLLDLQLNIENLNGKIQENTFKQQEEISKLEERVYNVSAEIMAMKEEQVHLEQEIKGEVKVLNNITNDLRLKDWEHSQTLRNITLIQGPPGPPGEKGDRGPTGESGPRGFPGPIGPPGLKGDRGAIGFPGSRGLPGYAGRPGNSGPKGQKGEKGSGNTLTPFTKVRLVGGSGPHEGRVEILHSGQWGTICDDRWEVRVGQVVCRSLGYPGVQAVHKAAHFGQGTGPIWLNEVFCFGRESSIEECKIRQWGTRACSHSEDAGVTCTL
Sequence of human MSR1 endogenously expressed on PMA-differentiated THP-1 cells (human) (P21757 whole entry): as above
Sequence of endogenously expressed human MSR1 on PMA-treated THP-1 cells (human) (P21757 whole entry): as above
Sequence of mouse MSR1 on RAW264.7 cells (mouse) (P30204 whole entry): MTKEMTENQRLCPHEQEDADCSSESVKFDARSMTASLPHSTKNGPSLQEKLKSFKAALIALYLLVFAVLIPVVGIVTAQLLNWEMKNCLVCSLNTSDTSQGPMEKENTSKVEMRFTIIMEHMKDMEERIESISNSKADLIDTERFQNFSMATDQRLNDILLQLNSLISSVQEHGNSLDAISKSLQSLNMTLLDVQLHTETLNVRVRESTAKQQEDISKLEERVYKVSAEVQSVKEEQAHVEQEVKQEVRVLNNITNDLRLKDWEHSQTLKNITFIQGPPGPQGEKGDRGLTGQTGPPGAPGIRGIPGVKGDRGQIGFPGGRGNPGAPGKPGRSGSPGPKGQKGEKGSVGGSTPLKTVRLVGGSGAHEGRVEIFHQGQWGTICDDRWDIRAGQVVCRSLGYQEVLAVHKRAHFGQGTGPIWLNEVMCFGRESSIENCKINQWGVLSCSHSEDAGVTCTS

Substance	% Blocking [1]	% Blocking [2]	% Blocking [3]	ratio of 11 nM antibody binding signal (RLU) to isotype control [6]	ratio of 11 nM antibody binding signal (RLU) to isotype control [7]	ratio of 11 nM antibody binding signal (RLU) to isotype control [8]	further results
Human IgG1 Isotype Control mAb (antibody)	-8%	4%	3%				
Isotype control (Table 19) (antibody)							Total Binding at 4° C. (RFU) [4]: 186000 RFU; Total Binding at 37° C. (RFU) [4]: 1.09e+06 RFU
Mouse IgG1 Isotype control mAb (antibody)	-4%	7%	16%				
commercial anti-mouse MSR1 antibody (Sino Biological, Cat #50129-R004)							MFI [5]: 245000; S/N [5]: 97
hIgG1 Isotype Control (antibody)				1	1	1	
mIgG Isotype Control (antibody)				1	1	1	
